Data reported in patent US6365161 (Bristol-Myers Squibb, dated 2002).

Target: T1, carcinoembryonic antigen (CEA) (UniProt P06731 35-685)
T1 sequence (looked up): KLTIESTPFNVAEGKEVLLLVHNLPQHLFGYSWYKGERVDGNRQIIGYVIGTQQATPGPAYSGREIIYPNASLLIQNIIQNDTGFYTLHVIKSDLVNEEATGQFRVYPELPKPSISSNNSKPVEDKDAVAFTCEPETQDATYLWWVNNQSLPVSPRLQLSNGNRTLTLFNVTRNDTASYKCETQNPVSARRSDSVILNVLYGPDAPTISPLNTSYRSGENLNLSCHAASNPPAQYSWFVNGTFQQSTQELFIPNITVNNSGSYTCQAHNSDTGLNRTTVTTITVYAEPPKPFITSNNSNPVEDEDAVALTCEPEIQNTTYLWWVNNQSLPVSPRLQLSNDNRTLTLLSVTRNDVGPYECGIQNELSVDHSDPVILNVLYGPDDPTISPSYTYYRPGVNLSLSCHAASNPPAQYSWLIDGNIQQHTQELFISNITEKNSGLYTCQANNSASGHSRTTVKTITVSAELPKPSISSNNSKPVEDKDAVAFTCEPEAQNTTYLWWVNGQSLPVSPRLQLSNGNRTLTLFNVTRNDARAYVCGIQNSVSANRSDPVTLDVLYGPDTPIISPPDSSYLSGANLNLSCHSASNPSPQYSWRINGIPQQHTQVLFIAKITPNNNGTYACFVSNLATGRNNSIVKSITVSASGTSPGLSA
Assay: bispecific ELISA, plates coated with CEA, detection with soluble FcγRI/IgM-µ
From the text: ELISA plates are coated with CEA and the blocked with 5% PBA.

B1: single chain antibody H22 encoded by construct 225 (scFv)
scFv: DIQLVESGGGVVQPGRSLRLSCSSSGFIFSDNYMYWVRQAPGKGLEWVATISDGGSYTYYPDSVKGRFTISRDNSKNTLFLQMDSLRPEDTGVYFCARGYYRYEGAMDYWGQGTPVTVSSGGGGSGGGGSGGGGSDIQLTQSPSSLSASVGDRVTITCKSSQSVLYSSNQKNYLAWYQQKPGKAPKLLIYWASTRESGVPSRFSGSGSGTDFTFTISSLQPEDIATYYCHQYLSSWTFGQGTKVEIKSSCSSGGGGSDIAAAEQKLISEEDLNGAAHHHHHH
notes: also called single chain H22 antibody
binding result: no binding
